Experimental data: publication PMC3323696

Assays:
[1] = target: GABAA receptor (GABAAR β2/3 subunits) (mouse (endogenous in striatum)) (UniProt P63137); experiment: co-IP
[2] = target: tubulin (α-tubulin) (mouse (endogenous in striatum)) (UniProt P68369); experiment: co-IP

Sequence of UniProt P63137 (P63137 whole entry, looked up): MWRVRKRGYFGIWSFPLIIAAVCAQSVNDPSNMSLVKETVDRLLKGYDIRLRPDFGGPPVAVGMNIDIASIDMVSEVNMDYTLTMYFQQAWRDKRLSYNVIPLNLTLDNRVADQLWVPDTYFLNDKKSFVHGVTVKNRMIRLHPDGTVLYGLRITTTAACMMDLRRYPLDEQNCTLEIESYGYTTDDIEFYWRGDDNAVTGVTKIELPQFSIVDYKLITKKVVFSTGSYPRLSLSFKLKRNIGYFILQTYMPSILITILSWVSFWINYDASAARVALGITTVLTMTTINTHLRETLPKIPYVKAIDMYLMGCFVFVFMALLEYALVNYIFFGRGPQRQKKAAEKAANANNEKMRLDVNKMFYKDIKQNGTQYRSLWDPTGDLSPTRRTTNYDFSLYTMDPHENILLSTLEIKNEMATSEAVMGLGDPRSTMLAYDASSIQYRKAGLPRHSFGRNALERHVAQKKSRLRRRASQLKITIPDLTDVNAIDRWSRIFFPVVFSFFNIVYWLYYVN

Row | Molecule | co-precipitated amount in HD (N171-82Q) mice, % of WT mice [1] | co-precipitated amount in HD (N171-82Q) mice, % of WT mice [2]
1 | KIF5 heavy chain (from UniProt Q61768 1-963) (natural protein) | 41.5 % of WT | 35.5 % of WT
2 | GABAA receptor (GABAAR β2/3 subunits) (from UniProt P63137 26-512; P63080 26-473) | – | 65.3 % of WT
3 | tubulin (α-tubulin) (from UniProt P68369 1-451) (natural protein) | 67.4 % of WT | –
4 | huntingtin associated protein 1 (HAP1) (natural protein) MRPKEQVQSGAGDGTGSGDPAAGTPTTQPAVGPAPEPSAEPKPAPAQGTGSGQKSGSRTKTGSFCRSMIIGDSDAPWTRYVFQGPYGPRATGLGTGKAEGIWKTPAAYIGRRPGVSGPERAAFIRELQEALCPNPPPTKKITEDDVKVMLYLLEEKERDLNTAARIGQSLVKQNSVLMEENNKLETMLGSAREEILHLRKQVNLRDDLLQLYSDSDDDDDEEDEEDEEEGEEEEREGQRDQDQQHDHPYGAPKPHPKAETAHRCPQLETLQQKLRLLEEENDHLREEASHLDNLEDEEQMLILECVEQFSEASQQMAELSEVLVLRLEGYERQQKEITQLQAEITKLQQRCQSYGAQTEKLQQMLASEKGIHSESLRAGSYMQDYGSRPRDRQEDGKSHRQRSSMPAGSVTHYGYSVPLDALPSFPETLAEELRTSLRKFITDPAYFMERRDTHCREGRKKEQRAMPPPPAQDLKPPEDFEAPEELVPEEELGAIEEVGTAEDGQAEENEQASEETEAWEEVEPEVDETTRMNVVVSALEASGLGPSHLDMKYVLQQLSNWQDAHSKRQQKQKVVPKDSPTPQQQTNMGGGILEQQPRVPTQDSQRLEEDRATHSPSAREEEGPSGAT | 42.9 % of WT | –
